These results are taken from patent US20030236190A1 (published 2003).

Starred links: 1 amine or outer side, 2 acyl side, 3 side chain; linkers in the order of their positions; H or OH if unused. Positions of bridges follow the written chain, without caps; N, C: chain ends. Non-standard residues stand in square brackets, D forms with d. Primed or numbered codes have the meaning given here. Chains are numbered I, II in the order given. No end group written: not given here. Lig′ = lysine with a 2-aminohydroxyacetyl group (CO-CH2-O-NH2) on the side-chain amino group, O=C(CON[*:3])NCCCC[C@H](N[*:1])C(=O)[*:2]; linker 14 = not defined here

The labels stand for the following.
B1: S229 (peptide)
peptide 1: SDGFYNAIELLSX
peptide 2: KHLCVLEELFWGASLFGYCSGKKX
modifications: not fully specified; C-terminal Lig′ coupled to linker 12
notes: heterodimer F2-F4, C-C
B2: S233 (peptide)
peptide 1: FHENFYDWFVRQVSKKX
peptide 2: SDGFYNAIELLSX
modifications: not fully specified; C-terminal Lig′ coupled to linker 14
notes: heterodimer F1-F2, C-C
B3: S231 (peptide)
peptide 1: FHENFYDWFVRQVSKKGGGX
peptide 2: FHENFYDWFVRQVSKKGGGX
modifications: not fully specified; C-terminal Lig′ coupled to linker 14
notes: dimer, C-C
B4: S172 (peptide)
peptide 1: XFHENFYDWFVRQVSKK
peptide 2: XFHENFYDWFVRQVSKK
modifications: N-terminal Lig coupled to linker 14
notes: dimer, N-N
B5: S218 (peptide)
peptide 1: AFYDWFAKK[Lig′]
peptide 2: AFYDWFAKK[Lig′]
modifications: linker I:10-II:10 via linker 14; not fully specified; reading uncertain
notes: dimer, C-C
B6: S255 (peptide)
peptide 1: SDGFYNAIELLSGGGX
peptide 2: SDGFYNAIELLSGGGX
modifications: not fully specified; C-terminal Lig′ coupled to linker 14
notes: dimer, C-C
B7: S169 (peptide)
peptide 1: XFHENFYDWFVRQVSKK
peptide 2: XFHENFYDWFVRQVSKK
modifications: N-terminal Lig coupled to linker 12
notes: dimer, N-N
B8: S170 (peptide)
peptide 1: CGFHENFYDWFVRQVSKK
peptide 2: CGFHENFYDWFVRQVSKK
modifications: bridge I:1-II:1; also: homodimer, N-N, linked at cysteines, type of link not given here
notes: dimer, N-N; also called 3170 (so in the source)

This test addresses T1, human insulin receptor (HIR) (human, UniProt P06213 28-1382, limits assumed).
T1 construct: Detergent-solubilised receptor; The natural receptor is an alpha2-beta2 heterotetramer cleaved from one precursor
Nature of the test: 125I-insulin displacement, solubilised HIR.
One may read the Kd as a measure of binding affinity in units of concentration. As for FHENFYDWFVAQVSKK [S108], the affinity, expressed as Kd, was 750 nM. This counts as sub-micromolar. In turn, NANFYDWFVAELG [S241] showed a Kd of 1600 nM.

In turn, HPSTNQMLMKLFK [S123] had a Kd of 16000 nM. The value for B1 was 44 nM; that for PLAELWAYFEHSEQGRSSAH [S174] was 16000 nM. Take B2: binding was put at a Kd of 260 nM. Compared with the last molecule, the Kd is about 62-fold lower. Turning to FHENFYDWFVRAVSKK [S107], the dissociation constant (Kd) stood at 1000 nM. Take SSNFYQALMLLS [S129]: the Kd turned out to be 2900 nM. As to HDPFYSMMKSLLK [S120], the Kd is 2000 nM. In the case of GRVDWLQRNANFYDWFV [S251] it was 5600 nM; in that of LQRNANFYDWFVAELG [S238], 850 nM; in that of B3, 270 nM.

Take B4: the Kd was 4800 nM. Regarding EHWNTVDPFYQYFSELLRESG [S178], the Kd worked out at 130 nM. In turn, FAENFYDWFVRQVSKK [S112] showed a Kd of 610 nM. Compared with the last molecule, the Kd is about 4.7-fold higher. The value for B5 was 11000 nM; that for VDWLQRNANFYDWFVAELG [S235] was 53 nM; that for RVDWLQRNANFYDWFVAELG [S234] was 130 nM. NSFYEALRMLSSK [S121] had a Kd of 3100 nM.

Molecule NGVERAGTGDNFYDWFVAQLH [S176] came in with an equilibrium dissociation constant (Kd) of 470 nM.

In turn, B6 gave a Kd of 1600 nM. Turning to GRVDWLQRNANFYDWFVA [S250], the Kd was found to be 8900 nM. Molecule B7 gave an equilibrium dissociation constant (Kd) of 580 nM.

Consider DWLQRNANFYDWFVAELG [S236], for which the Kd amounted to 100 nM. For the molecule B8, the dissociation constant Kd was determined as 700 nM. This Kd is about 7-fold higher than that of the molecule before.

AAAAFYDWFAAAAAKK [S168] yielded a Kd of 3800 nM. Compared with the last molecule, the Kd is about 5.4-fold higher. For the molecule ANFYDWFVAELG [S242], binding was characterised by a dissociation constant (Kd) of 2000 nM.

With EFHENFYDWFVRQVSEE [S115], the Kd came out at 650 nM.

The molecule SLNFYDALQLLAKK [S119] returned a Kd of 1800 nM. Compared with the last molecule, the Kd is about 2.8-fold higher. As to NFYDWFVAELG [S243], the Kd turned out to be 2000 nM. Regarding HETFYSMIRSLAK [S117], the affinity, expressed as Kd, was 2700 nM. The value for FHENFYDWFVRQVSK (also called D117/H2C) [S158] was 810 nM. Molecule HPPLSELKLFLIKK [S124] gave a Kd of 23000 nM.

QLEEEWAGVQCEVYGRECPS [S226]: the affinity, expressed as Kd, was 1600 nM. With FHENFYDWFVRQVAKK [S105], the affinity, expressed as Kd, was 310 nM. CGFHENFYDWFVRQVSKK (also called 3171 (so in the source)) [S171] gave a Kd of 2900 nM. As for GRVDWLQRNANFYDWFVAE [S249], the Kd was 740 nM.

Molecule EHWNTVDPFYFTLFEWLRESG [S177] yielded an equilibrium dissociation constant (Kd) of 2700 nM. This Kd is about 3.6-fold higher than that of the molecule before. Regarding GRVDWLQRNANFYDWFVAEL [S248], the affinity, expressed as Kd, was 63 nM. The molecule HPTSKEIYAKLLK [S122] had a Kd of 9300 nM.

WLQRNANFYDWFVAELG [S237] displayed a Kd of 850 nM. Consider QSDSGTVHDRFYGWFRDTWAS [S179], for which binding was characterised by a dissociation constant (Kd) of 540 nM. This Kd is about 1.6-fold lower than that of the molecule before.

In the case of AHENFYDWFVRQVSKK [S113], the Kd stood at 590 nM. The value for FHENFYDWFVRQASKK [S106] was 420 nM; that for SDGFYNAIELLS [S118] was 2400 nM.
